The supplement of paper PMC9170038

Tested on: MS2 coat protein
Test: apparent KD of MS2 coat protein; designed switch direction (-1 OFF switch, 1 ON switch): -1; higher = weaker reporter binding
Method in brief: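 The apparent KD reported per design is the median over clusters of curve fits to normalised cluster fluorescence. The RNA switches were transcribed on Illumina chips by stalled E. coli RNA polymerase. SNAP-549-labelled MS2 coat protein was titrated from 0.7 or 1.5 nM, doubling up to 3 µM, in Tris-HCl pH 7.5 buffer containing KCl, MgCl2, BSA, DTT, tRNA and Tween-20, with no input, 200 uM small-molecule ligand, or an oligonucleotide input.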

[1] = Eterna round: R95, input ligand: microRNA oligo, concentration not stated
[2] = Eterna round: R95, input ligand: FMN 200 uM
[3] = Eterna round: R95, input ligand: none
[4] = input ligand: microRNA oligo, concentration not stated

Row | Sequence | apparent KD of MS2 coat protein [1] [nM] | apparent KD of MS2 coat protein (input ligand: FMN 200 uM) [nM] | apparent KD of MS2 coat protein (input ligand: none) [nM] | further results
1 | GAGUGCUGAGGAUAUACAUGAGGAUCACCCAUGUGCUUCAGCUAGGAGACUAGCAUUGGUAGAAGGUAGUACUC [LRO-Excl3-02] (puzzle: Exclusion 3) | 10.6 |  |  | 
2 | CGUUCUCGAGUCAGGAUAUCGACUAAUUCCCAAGUCGAGAAGGGACAUGAGGAUCACCCAUGUAAAGAAAAGAA [Ainteedle] (puzzle: Brourd's mod of Exclusion 4) | 30.1 |  |  | apparent KD of MS2 coat protein [2]: 118 nM; apparent KD of MS2 coat protein [3]: 30.3 nM
3 | CUGGUCCGAGGAUAUUUUAUGUGAUACAUGAGGAUCACCCAUGUUAUAUGAUGGAUGUUAAAAGAAGGCGGACUAG [Mat - Exclusion 5 - JL mod - D80] (puzzle: Exclusion 5) | 102 |  |  | apparent KD of MS2 coat protein [2]: 77 nM; apparent KD of MS2 coat protein [3]: 114 nM
4 | CCCAGUUACUGAGGAUAUCCUACAUGAGGAUCACCCAUGUAAUAAAUGAGGAUUUCGGGUGUCUAGGAGAAGGCAGGGAUAGGC [Ostracism 23 - Jieux - Exclusion NG 2] (Eterna round: R96, puzzle: Exclusion NG 2) |  | 84.9 | 50.3 | apparent KD of MS2 coat protein [4]: 28.8 nM
5 | GGUCGUAGACAGGAUAUGCGGCAAAGAAACAAAGCAGAAGGGUCUACUUGAGGAUCACCCAAGUGGGCGGUUAA [Atrele] (Eterna round: R97, puzzle: Exclusion 6) |  | 153 | 20.4 | 
6 | UAUUCGCAAGCAAAUGGGUACAUGAGGAUCACCCAUGUGCUCGUCUUAUAAGGUACUGUGACGAAAGUCACGGUACC [mod--Eli9] (Eterna round: R97, puzzle: Sensor, turn-off variant 1) |  | 20.9 | 20.3 | 
7 | ACAAGCUUUUUGCUCGUCUACAUGAGGAUCACCCAUGUAGUGAGAUAGUGGUGAAGAUAGAAUGAGCGUAGUAGGUA [JR_SV3TOV1_Sub070] (puzzle: Sensor v3, turn-off variant 1) | 34.1 |  |  | apparent KD of MS2 coat protein [2]: 14.5 nM; apparent KD of MS2 coat protein [3]: 10.2 nM
8 | AAUAACAAGUAGAUCCUAAACAUGAGGAUCACCCAUGUGCUCGUCUUGUAAAGUACUAUCACGAAAGUGAUAGUACA [Sensor 3, v1 - 58] (puzzle: Sensor v3, turn-off variant 1) | 360 |  |  | apparent KD of MS2 coat protein [2]: 67 nM; apparent KD of MS2 coat protein [3]: 115 nM
9 | UGCCUACAUGAGGAUCACCCAUGUGAGGAUAUCCUGCGAGGAUCAAAAGAUCCUCGUGGGAGAAGGCGCCUGGA [Omei Ex1 B5] (Eterna round: R97, puzzle: Exclusion 1) |  | 19.9 | 16.2 | 
10 | CCCUUGUGAGGAUAUUCUUAAAAUGCUAACCACAAUUUUAUGAAGAAGGCACAUGAGGAUCACCCAUGUUUCUC [mod1] (Eterna round: R97, puzzle: Exclusion 4) |  | 80.5 | 96.4 | 
11 | GGAAAGCAAGGAUAUACAAGUAAACGACGGAAAGUAGAGAGACAUGAGGAUCACCCAUGUAGAAGGUGCGAGAG [JR_Exclu2_Sub035] (puzzle: Exclusion 2) | 26.9 |  |  | apparent KD of MS2 coat protein [2]: 19 nM; apparent KD of MS2 coat protein [3]: 20.1 nM
12 | GAAGAGACAGGAUAUACAUGAGGAUCACCCAUGUGAGGAGGUUGGAGGCGGAGAAGGUGUAGAAGGGUCAAAGA [JR_Exclu3_Sub022] (puzzle: Exclusion 3) | 36 |  |  | apparent KD of MS2 coat protein [2]: 41.5 nM; apparent KD of MS2 coat protein [3]: 51.4 nM
13 | AUGUGACAUGAGGAUCACCCAUGUCAGGAUAUUUCCAAAAUAAAAUAAAACCGCGUGGAAAGAAGGGACGUGGC [EX1 A.4] (Eterna round: R97, puzzle: Exclusion 1) |  | 27.4 | 21.9 | 
14 | AGAUGGCGAGGAUAUACAUGAGGAUCACCCAUGUGAGAGAAAAGAGUGAGGAAGAAAAGUAGAAGGCGCUGUCA [Mat - Exclusion 3 - Mod of Salish D17] (puzzle: Exclusion 3) | 71 |  |  | 
15 | GGAAUACAUGAGGAUCACCCAUGUAAGGAUAUGCUGAUUAAAUUGGAUUAAUUAUGCAGCAGAAGGUACAAAAG [Mat - Mod of my Eli Mod D49] (puzzle: Exclusion 1) | 82.3 |  |  | 
16 | AAACAGGGAGGAUAUACAUAGAUCGUCUAACCUAAUUGGUCACAUGAGGAUCACCCAUGUAGAAGGCCCUUAGG [Tiisdixe] (puzzle: Exclusion 2) | 22.2 |  |  | 

Row | Sequence | apparent KD of MS2 coat protein [1] [nM] | apparent KD of MS2 coat protein (input ligand: FMN 200 uM) [nM] | apparent KD of MS2 coat protein (input ligand: none) [nM] | further results
17 | AUAAUGUAAGGAUAUCAGUCGUACAGCCUCGGCUGUACGACUGAGAAGGUACAUGAGGAUCACCCAUGUGAUCA [E4/8-A2] (Eterna round: R97, puzzle: Exclusion 4) |  | 98.4 | 1200 | 
18 | CGGCUACGAUGAGGAUAUACGCACAUGAGGAUCACCCAUGUAAAUCACGGGUAAAGAUCUUCAUCGUAGAAGGCAUAAGGGCCC [Edarbelabe] (Eterna round: R96, puzzle: Exclusion NG 2) |  | 31.8 | 31.4 | apparent KD of MS2 coat protein [4]: 20.9 nM
19 | GAUUGAGAAGGAUAUACAUGAGGAUCACCCAUGUGCUUCAGCUAGGAGACUAGCAUUGGUAGAAGGUCUUAAUC [Mod of lroppy 15 - Jieux - Exclusion 3] (Eterna round: R97, puzzle: Exclusion 3) |  | 69.7 | 19.2 | 
20 | CUUGUUUAUGUGAGGAUAUACUGUUAGUAAUGUUUGUAGAAGGUACAUGAGGAUCACCCAUGUUUAUUUCCUUU [JR_BME4_Sub045] (puzzle: Brourd's mod of Exclusion 4) | 13.8 |  |  | 
21 | GGCCAGAUAGGAUAUACUUGAGGAUCACCCAAGUAAAGGAGCAAGCUCCGAUCCUUUGGUAGAAGGAUCGGCCA [Diqulees] (Eterna round: R97, puzzle: Exclusion 3) |  | 92.7 | 52.8 | 
22 | GCUAGCCAUGUCAGGAUAUGCUGUACCUUGGUACAGCAGAAGGGACAUGAGGAUCACCCAUGUGCCUAGCUAGC [JL-BMX4-4.03] (Eterna round: R97, puzzle: Brourd's mod of Exclusion 4) |  | 197 | 27.1 | 
23 | UAGAUGCUCAGGGAGUGUGACAUGAGGAUCACCCAUGUGGUGGUAGGGAACAAGCUUUUUGCACGUACUUAUGAGUA [JR_SV3TOV1_Sub007] (puzzle: Sensor v3, turn-off variant 1) | 18.3 |  |  | apparent KD of MS2 coat protein [2]: 64.9 nM; apparent KD of MS2 coat protein [3]: 117 nM
24 | CCGCAUAAGCAGGAUAUCGUAUCGGAUACGAUACGAGAAGGGUUUACAUGAGGAUCACCCAUGUUCCUUAGCGG [Fiskers Ex 6 - 31] (puzzle: Exclusion 6) | 26.2 |  |  | 
25 | CCCGUCGAUGUAGGAUAUGCCCGGGUCUCCCGGGCAGAAGGACAUGAGGAUCACCCAUGUUCAUGAGGGUCGCCCAUGAAUGGG [Double but mutated MS2] (Eterna round: R96, puzzle: Exclusion NG 1) |  | 88.8 | 21.2 | apparent KD of MS2 coat protein [4]: 17 nM
26 | AAGAAACAUGAGGAUCACCCAUGUGAGGAUAUGAGUAAGAAAAGAAAAGAAAGAAGACUCAGAAGGCACAAAGG [salish99-ex1_r3_074] (puzzle: Exclusion 1) | 110 |  |  | apparent KD of MS2 coat protein [2]: 135 nM; apparent KD of MS2 coat protein [3]: 86.8 nM
27 | AUUAUGUAAGGAUAUCUUACAUGUGACUUCGGUCACUGUUAAGAGAAGGUACAUGAGGAUCACCCAUGUAGAAC [Ex4-3: 47] (puzzle: Exclusion 4) | 18.1 |  |  | 
28 | AGCCCUGCAGGAUAUGCCCGGGAUAACAUGAGGAUCACCCAUGUGACUGAUUGUUAUCCUGCAGAAGGGCAUGGGA [JL-EX5-4.13 ViennaUCT mod] (Eterna round: R97, puzzle: Exclusion 5) |  | 547 | 1000 | 
29 | UUUUACAAGCUUAGAUCCUACAUGAGGAUCACCCAUGUGGUCCGGUGACGUGAGUCACCGGACUAAGCUCGUCUUGU [JL TOV1 3.71] (Eterna round: R97, puzzle: Sensor, turn-off variant 1) |  | 124 | 114 | 
30 | UUCCUCGUUGUGAGGAUAUCGUAUUCUUUUUGUUACGAGAAGGCACAUGAGGAUCACCCAUGUUUCUUGAUGUU [JR_BMOE4_Sub069] (puzzle: Brourd's mod of Exclusion 4) | 19.6 |  |  | 
31 | GGUGCGUGUGUGAGGAUAUGCUGGUCCUUGGCUCGGCAGAAGGCACAUGAGGAUCACCCAUGUGGUGUCGUGCC [salish99_Bmod_ex4_057] (puzzle: Brourd's mod of Exclusion 4) | 19.9 |  |  | 
32 | CUAUUCCGAGGAUAUACAUGAGGAUCACCCAUGUCGGGCCUCUGCGUUUAGCGCGAAAGUAGAAGGUGGGUUUC [JL Riri mod 9] (Eterna round: R96, puzzle: Exclusion 3) |  | 35.5 | 32 | apparent KD of MS2 coat protein [4]: 26.8 nM
